Assay results reported in the DeepSol protein solubility set.

Experiment: soluble on expression in E. coli; label from the status in PepcDB or PDB records

Sequence | soluble on expression in E. coli
MSLTQMEMARKGVVSDEMKKVAEYEGVDVEIVRQKLAEGRAVLPKNKLHRIERPMIVGEGFSVKVNANIGTSQGFSSLEEEKEKARVAIEYGADSLMVLSTWGDLREIRRAIVEMSPVPVGSVPIYDSAVRSYQMKKNVVDFSEKDFFDMVIAHAEDGIDFMTIHVGVTRRVLDRIKSSRRVLKIVSRGGAIIAGWMIKNNKENPFYEHFDELLDIAKDYDITLSLGDGMRPGAVVDASDAQQFEELFVMGELVERAREKGVQVMLEGPGHVPLNEVEMNVRLMKKIGKGAPIFLLGPLPTDRAMGYDHIACAIGGALAGYYGADFLCYVTPSEHISLPDVEDVREGVIASKIAAIVADVARGNKKAWELEKKMALARKNFDWETMFSLSLGKDVAKKKYEERPYPDKGCSMCGPFCAIKIAEEFSEGHHHHHH | soluble
AAPSFDCGKPQVEPKKCPGRVVGGCVAHPHSWPWQVSLRTRFGMHFCGGTLISPEWVLTAAHCLEKSPRPSSYKVILGAHQEVNLEPHVQEIEVSRLFLEPTRKDIALLKLSSPAVITDKVIPACLPSPNYVVADRTECFITGWGETQGTFGAGLLKEAQLPVIENKVCNRYEFLNGRVQSTELCAGHLAGGTDSCQGDSGGPLVCFEKDKYILQGVTSWGLGCARPNKPGVYVRVSRFVTWIEGVMRNN | soluble
MKIRTSMIALSLAALLSGCQSLNTEGLMQSGAQAFQAATLNDADVKALSEKSCVEMDQKAQIASADSQYGKRMAKIAAALGDNINGTPANYKVYVTKDVNAWAMANGCIRVYSGLMDMMTDNEVEGVVGHEMGHVALGHTRKAMQVAYGTTALRTAIASAGGVVGTLSQSQLADLGEKLVNAQFSQKQESEADDYSFDLLKKRGIDPNGLVTSFEKLASMEAGRNSSMFDDHPSSQARAEHIRQRIAAEK | not soluble
MGLPKSAYKKLLIDCPTRVINKNCAQRVKDVSPLITNFEKWSDKRKKLYFKDEEEMVGQFHLENFNLKNNLYGRLLASPMRAEKISKLKSCRELLIPLKVVPSTGKDQHADKDKLKLVPTLDYSKSYKSSYVLNSASIVQDNLAAATSWFPISVLQTSTPKSLEVDSSTFITEYNANLHAFIKARLSVIPNVGPSSINRVLLICDKRKTPPIEIQVVSHGKGLPITQSVFNLGYLHEPTLEAIVSKDAVTNGIYLDADNDKDLIKHLYSTLLFHSVN | not soluble
MGSDKIHHHHHHMIRMIRKFKVKGLRSPSLLIDMILNDTEEGILVVETDGEEQIKDIEKLLKKYNLKYEVDGNVVKIYVGEIKADKTINVVGATCPGPIMMVSDMLSKMKNGEILEIICGKNSLTDLTEGLKGMGNEIIKVEDKGDGTYRILVKKGEKKEEKAAVTKIDELFIINTTGTGNAEKAYATFMMADVALKMNLKPTIFLMMDGASLALKGECDRVKHPAFPKLGDLVRDILSKGVKIYVCELSAEFRGINEKNLEEGFEIAGAPTFLNYLSKPNVRPVWL | not soluble
MATTSAQTSPTEFGAGLPEAEDHSESAEPQSVEAEVIDERYADVWEKIQHARTIDVHDDAEVRKQRNFFDDKQKFMTQVTQRAEPFLYYIVSQLEARNMPLELALLPIVESGYNPLAQANGPAGLWQMIPATGRNFGLTINSAYDGRKDALASTDAVLDYLQHLYNTLGNDWINAVAGYNSGELVIKAAIDRNKAKGKPTDFWSLNIPARQVQTVPKWLAFIQIIREPSHYNLKVMPIANRPFLERLPAPNGVEISQIANAAGLTKAEFKTYNPGYRQSVIPSKGKYQIALPIENIGHYQENQHKLYAQKRYDSQTYIVKSGDSLGTIAAKFDLSVKELKQANNLTSDRLKIGQELTLLTPMAANDNEPEPVKTKANTDKSSTKANASSTKATSSKSTDKPVAKAKTYKVKSGDSLDKIARKSKVKLADLMKWNQLNAKSIIKPGQELKISELEHHHHHH | not soluble
MGHHHHHHSHNEPEDSKLRFETYQLIWQQMKSENERLQEELNKNLFDNLIEFLQKSHSGFQKNSRDLGGQIKLREIPTAALVLGVNVTDHDLTFGSLTEALQNNVTPYVVSLQAKDCPDMKHFLQKLISQLMDCCVDIKSKEEESVHVTQRKTHYSMDSLSSWYMTVTQKTDP | not soluble
